Legend:
[1] = biological target: histone H3 in untreated nucleosomes purified from HeLa cells, P68431
[2] = biological target: H3K4me3T6ph peptide (H3 tail residues 1-20), P68431
[3] = biological target: H3K4me3 peptide (H3 tail residues 1-20), P68431
[4] = biological target: H3K4me2T6ph peptide (H3 tail residues 1-20), P68431
[5] = biological target: H3K4me2 peptide (H3 tail residues 1-20), P68431

B1: purified recombinant active PKCζ (ProQinase) (protein)
chain: MPSRTGPKMEGSGGRVRLKAHYGGDIFITSVDAATTFEELCEEVRDMCRLHQQHPLTLKWVDSEGDPCTVSSQMELEEAFRLARQCRDEGLIIHVFPSTPEQPGLPCPGEDKSIYRRGARRWRKLYRANGHLFQAKRFNRRAYCGQCSERIWGLARQGYRCINCKLLVHKRCHGLVPLTCRKHMDSVMPSQEPPVDDKNEDADLPSEETDGIAYISSSRKHDSIKDDSEDLKPVIDGMDGIKISQGLGLQDFDLIRVIGRGSYAKVLLVRLKKNDQIYAMKVVKKELVHDDEDIDWVQTEKHVFEQASSNPFLVGLHSCFQTTSRLFLVIEYVNGGDLMFHMQRQRKLPEEHARFYAAEICIALNFLHERGIIYRDLKLDNVLLDADGHIKLTDYGMCKEGLGPGDTTSTFCGTPNYIAPEILRGEEYGFSVDWWALGVLMFEMMAGRSPFDIITDNPDMNTEDYLFQVILEKPIRIPRFLSVKASHVLKGFLNKDPKERLGCRPQTGFSDIKSHAFFRSIDWDLLEKKQALPPFQPQITDDYGLDNFDTQFTSEPVQLTPDDEDAIKRIDQSEFEGFEYINPLLLSTEESV
phosphorylation of nucleosomes at H3T6 (in vitro kinase assay, Western blot with α-H3T6ph) [1]: only PKCα, 131 and 132 phosphorylate nucleosomes at H3T6 (PKCζ tested, no phosphorylation)

B2: purified recombinant active PKCι (ProQinase) (protein)
chain: MSHTVAGGGSGDHSHQVRVKAYYRGDIMITHFEPSISFEGLCNEVRDMCSFDNEQLFTMKWIDEEGDPCTVSSQLELEEAFRLYELNKDSELLIHVFPCVPERPGMPCPGEDKSIYRRGARRWRKLYCANGHTFQAKRFNRRAHCAICTDRIWGLGRQGYKCINCKLLVHKKCHKLVTIECGRHSLPQEPVMPMDQSSMHSDHAQTVIPYNPSSHESLDQVGEEKEAMNTRESGKASSSLGLQDFDLLRVIGRGSYAKVLLVRLKKTDRIYAMKVVKKELVNDDEDIDWVQTEKHVFEQASNHPFLVGLHSCFQTESRLFFVIEYVNGGDLMFHMQRQRKLPEEHARFYSAEISLALNYLHERGIIYRDLKLDNVLLDSEGHIKLTDYGMCKEGLRPGDTTSTFCGTPNYIAPEILRGEDYGFSVDWWALGVLMFEMMAGRSPFDIVGSSDNPDQNTEDYLFQVILEKQIRIPRSLSVKAASVLKSFLNKDPKERLGCHPQTGFADIQGHPFFRNVDWDMMEQKQVVPPFKPNISGEFGLDNFDSQFTNEPVQLTPDDDDIVRKIDQSEFEGFEYINPLLMSAEECV
phosphorylation of nucleosomes at H3T6 (in vitro kinase assay, Western blot with α-H3T6ph) [1]: only PKCα, 131 and 132 phosphorylate nucleosomes at H3T6 (PKCι tested, no phosphorylation)

B3: purified recombinant active PKCµ (ProQinase) (protein)
chain: MSAPPVLRPPSPLLPVAAAAAAAAAALVPGSGPGPAPFLAPVAAPVGGISFHLQIGLSREPVLLLQDSSGDYSLAHVREMACSIVDQKFPECGFYGMYDKILLFRHDPTSENILQLVKAASDIQEGDLIEVVLSASATFEDFQIRPHALFVHSYRAPAFCDHCGEMLWGLVRQGLKCEGCGLNYHKRCAFKIPNNCSGVRRRRLSNVSLTGVSTIRTSSAELSTSAPDEPLLQKSPSESFIGREKRSNSQSYIGRPIHLDKILMSKVKVPHTFVIHSYTRPTVCQYCKKLLKGLFRQGLQCKDCRFNCHKRCAPKVPNNCLGEVTINGDLLSPGAESDVVMEEGSDDNDSERNSGLMDDMEEAMVQDAEMAMAECQNDSGEMQDPDPDHEDANRTISPSTSNNIPLMRVVQSVKHTKRKSSTVMKEGWMVHYTSKDTLRKRHYWRLDSKCITLFQNDTGSRYYKEIPLSEILSLEPVKTSALIPNGANPHCFEITTANVVYYVGENVVNPSSPSPNNSVLTSGVGADVARMWEIAIQHALMPVIPKGSSVGTGTNLHRDISVSISVSNCQIQENVDISTVYQIFPDEVLGSGQFGIVYGGKHRKTGRDVAIKIIDKLRFPTKQESQLRNEVAILQNLHHPGVVNLECMFETPERVFVVMEKLHGDMLEMILSSEKGRLPEHITKFLITQILVALRHLHFKNIVHCDLKPENVLLASADPFPQVKLCDFGFARIIGEKSFRRSVVGTPAYLAPEVLRNKGYNRSLDMWSVGVIIYVSLSGTFPFNEDEDIHDQIQNAAFMYPPNPWKEISHEAIDLINNLLQVKMRKRYSVDKTLSHPWLQDYQTWLDLRELECKIGERYITHESDDLRWEKYAGEQGLQYPTHLINPSASHSDTPETEETEMKALGERVSIL
phosphorylation of nucleosomes at H3T6 (in vitro kinase assay, Western blot with α-H3T6ph) [1]: only PKCα, 131 and 132 phosphorylate nucleosomes at H3T6 (PKCµ tested, no phosphorylation)

B4: baculovirus expressed and purified GST-JARID1B (protein)
chain: MEAATTLHPGPRPALPLGGPGPLGEFLPPPECPVFEPSWEEFADPFAFIHKIRPIAEQTGICKVRPPPDWQPPFACDVDKLHFTPRIQRLNELEAQTRVKLNFLDQIAKYWELQGSTLKIPHVERKILDLFQLNKLVAEEGGFAVVCKDRKWTKIATKMGFAPGKAVGSHIRGHYERILNPYNLFLSGDSLRCLQKPNLTTDTKDKEYKPHDIPQRQSVQPSETCPPARRAKRMRAEAMNIKIEPEETTEARTHNLRRRMGCPTPKCENEKEMKSSIKQEPIERKDYIVENEKEKPKSRSKKATNAVDLYVCLLCGSGNDEDRLLLCDGCDDSYHTFCLIPPLHDVPKGDWRCPKCLAQECSKPQEAFGFEQAARDYTLRTFGEMADAFKSDYFNMPVHMVPTELVEKEFWRLVSTIEEDVTVEYGADIASKEFGSGFPVRDGKIKLSPEEEEYLDSGWNLNNMPVMEQSVLAHITADICGMKLPWLYVGMCFSSFCWHIEDHWSYSINYLHWGEPKTWYGVPGYAAEQLENVMKKLAPELFVSQPDLLHQLVTIMNPNTLMTHEVPVYRTNQCAGEFVITFPRAYHSGFNQGFNFAEAVNFCTVDWLPLGRQCVEHYRLLHRYCVFSHDEMICKMASKADVLDVVVASTVQKDMAIMIEDEKALRETVRKLGVIDSERMDFELLPDDERQCVKCKTTCFMSAISCSCKPGLLVCLHHVKELCSCPPYKYKLRYRYTLDDLYPMMNALKLRAESYNEWALNVNEALEAKINKKKSLVSFKALIEESEMKKFPDNDLLRHLRLVTQDAEKCASVAQQLLNGKRQTRYRSGGGKSQNQLTVNELRQFVTQLYALPCVLSQTPLLKDLLNRVEDFQQHSQKLLSEETPSAAELQDLLDVSFEFDVELPQLAEMRIRLEQARWLEEVQQACLDPSSLTLDDMRRLIDLGVGLAPYSAVEKAMARLQELLTVSEHWDDKAKSLLKARPRHSLNSLATAVKEIEEIPAYLPNGAALKDSVQRARDWLQDVEGLQAGGRVPVLDTLIELVTRGRSIPVHLNSLPRLETLVAEVQAWKECAVNTFLTENSPYSLLEVLCPRCDIGLLGLKRKQRKLKEPLPNGKKKSTKLESLSDLERALTESKETASAMATLGEARLREMEALQSLRLANEGKLLSPLQDVDIKICLCQKAPAAPMIQCELCRDAFHTSCVAVPSISQGLRIWLCPHCRRSEKPPLEKILPLLASLQRIRVRLPEGDALRYMIERTVNWQHRAQQLLSSGNLKFVQDRVGSGLLYSRWQASAGQVSDTNKVSQPPGTTSFSLPDDWDNRTSYLHSPFSTGRSCIPLHGVSPEVNELLMEAQLLQVSLPEIQELYQTLLAKPSPAQQTDRSSPVRPSSEKNDCCRGKRDGINSLERKLKRRLEREGLSSERWERVKKMRTPKKKKIKLSHPKDMNNFKLERERSYELVRSAETHSLPSDTSYSEQEDSEDEDAICPAVSCLQPEGDEVDWVQCDGSCNQWFHQVCVGVSPEMAEKEDYICVRCTVKDAPSRK
demethylation assay, mass spectrometry [2]: demethylation of tri- and dimethyl H3K4 peptides phosphorylated at T6 (H3K4me3T6ph and H3K4me2T6ph) is severely impaired | demethylation assay, mass spectrometry [3]: Recombinant, purified JARID1B (FIG. 9) efficiently demethylates H3K4me3 and H3K4me2 peptides | demethylation assay, mass spectrometry [4]: demethylation of tri- and dimethyl H3K4 peptides phosphorylated at T6 (H3K4me3T6ph and H3K4me2T6ph) is severely impaired | demethylation assay, mass spectrometry [5]: Recombinant, purified JARID1B (FIG. 9) efficiently demethylates H3K4me3 and H3K4me2 peptides
